Tests used:
PCNA WT = PCNA WT (UniProt P12004); assay: single-molecule FRET of DNA bending (TIRF); internally labeled double flap DNA on the surface, PCNA pre-loaded by RFC and trapped on it (Sub#12) or absent (Sub#13); Polδ Exo^− 250 nM in solution; 50 ms resolution; 50 mM HEPES-KOH pH 7.5, 100 mM KCl, 10 mM MgCl2; details: other: single-molecule FRET of DNA bending (TIRF)
[1] = biological target: FEN1 D181A•PCNA complex prebound on the nick product (FEN1•PCNA•NP) (human) (UniProt P39748); assay: other fluorescence titration; apparent; FeSQ quenching of Cy3 on the DNA: FEN1 D181A (250 nM) prebound to PCNA-loaded nick DNA (Sub#28), Polδ titrated; quadratic fit (Eq. 1); 22 °C, 50 mM HEPES-KOH pH 7.5, 100 mM KCl, 10 mM MgCl2, 1 mM ATP
Chain of FEN1 D181A•PCNA complex prebound on the nick product (FEN1•PCNA•NP) (human) (P39748 2-380 D181A, chain 1 of 2): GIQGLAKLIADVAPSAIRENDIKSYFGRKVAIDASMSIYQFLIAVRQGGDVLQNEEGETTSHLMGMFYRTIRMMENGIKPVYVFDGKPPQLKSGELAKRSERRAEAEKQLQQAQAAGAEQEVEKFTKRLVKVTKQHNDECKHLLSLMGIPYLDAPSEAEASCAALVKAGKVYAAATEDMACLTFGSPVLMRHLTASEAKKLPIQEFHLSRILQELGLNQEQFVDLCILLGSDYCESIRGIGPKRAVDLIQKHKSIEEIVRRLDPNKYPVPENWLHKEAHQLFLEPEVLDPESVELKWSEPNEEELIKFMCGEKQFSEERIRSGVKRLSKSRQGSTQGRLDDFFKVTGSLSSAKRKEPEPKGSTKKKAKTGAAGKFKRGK
Chain of FEN1 D181A•PCNA complex prebound on the nick product (FEN1•PCNA•NP) (human) (P12004 whole entry, chain 2 of 2, further chain): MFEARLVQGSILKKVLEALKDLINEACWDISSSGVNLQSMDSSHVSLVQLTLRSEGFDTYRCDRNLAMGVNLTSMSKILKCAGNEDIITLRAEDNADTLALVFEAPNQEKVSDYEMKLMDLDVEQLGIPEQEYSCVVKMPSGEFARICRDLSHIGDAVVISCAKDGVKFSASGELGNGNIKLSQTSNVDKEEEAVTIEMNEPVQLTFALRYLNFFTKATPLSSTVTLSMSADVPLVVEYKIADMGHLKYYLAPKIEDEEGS

PCNA (Homo sapiens) = PCNA (Homo sapiens) (UniProt P12004); details: cited from earlier work
Chain of PCNA (Homo sapiens) (P12004 whole entry): as the sequence (P12004 whole entry, chain 2 of 2, further chain) above

Chain of FEN1 (P39748 whole entry): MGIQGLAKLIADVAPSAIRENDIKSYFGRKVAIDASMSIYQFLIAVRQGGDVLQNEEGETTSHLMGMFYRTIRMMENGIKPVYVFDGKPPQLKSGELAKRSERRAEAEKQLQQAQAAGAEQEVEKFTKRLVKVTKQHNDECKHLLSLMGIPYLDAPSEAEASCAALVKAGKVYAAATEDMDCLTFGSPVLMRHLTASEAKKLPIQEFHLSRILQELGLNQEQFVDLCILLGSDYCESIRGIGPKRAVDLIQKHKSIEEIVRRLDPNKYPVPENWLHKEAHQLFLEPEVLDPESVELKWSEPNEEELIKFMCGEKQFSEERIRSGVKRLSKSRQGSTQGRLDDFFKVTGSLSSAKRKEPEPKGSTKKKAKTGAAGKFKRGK
Chain of PCNA WT (P12004 whole entry): as the sequence (P12004 whole entry, chain 2 of 2, further chain) above

Substance: Polδ Exo^− (D515V in p125)
- assembly yield of the Polδ•PCNA complex (PCNA WT): the assembly yield was only ~70%

Substance: Polδ Exo^− (D515V in p125) (from UniProt P28340 1-1107; Q9HCU8 1-107) (complex)
- Kd [1]: 4.5 nM

Substance: FEN1 (from UniProt P39748)
- Kd (PCNA (Homo sapiens)): 70 nM

Source: paper PMC9666535
